From the supplement of paper PMC7125110 come the findings set out here.

First the molecules themselves.
B1: glmS ribozyme (parent)
chain: AUAAAAGCGCCAGAACUACAGAAAUGUAGUUGACGAGGAGGAGGUUUAUCGAAUUUUCGGCGGAUGCCUCCAAA

Holding throughout (conditions): with glucosamine-6-phosphate
Variants of B1 are the subject of data set [1]. Nature of the data set: self-cleavage kobs at 640 uM GlcN6P; higher = faster cleavage; RNA array. An outline of the steps:
(§1)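 E. coli RNA polymerase transcribed barcoded ribozyme variants in situ on sequenced MiSeq chips, which were tracked via a hybridised Cy3 probe at 37 °C. Tiles were imaged over ~14 h after glucosamine-6-phosphate (40 μM to 10 mM) in HEPES/KCl/Mg(OAc)2 buffer was flowed in. Normalised per-tile medians were fit to one- or two-exponential decays for kobs, and kcat and KM came from weighted Michaelis–Menten fits.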

In data set [2] the parent is B1. Nature of the data set: self-cleavage kobs at 2500 uM GlcN6P; higher = faster cleavage; RNA array. An outline of the steps: as §1
The variants in data set [3] derive from B1. The experiment in a line: self-cleavage kobs at 10000 uM GlcN6P; higher = faster cleavage; RNA array. In outline: as §1

± gives the standard error. This sample holds only a part of the variants without activity.

Turning to G44U U45G A53C, the “self-cleavage kobs at 640 uM GlcN6P” value in the data set with glucosamine-6-phosphate [1] is 0.000372 ± 0.00011 s⁻¹.
On the same count and under the same terms, in the case of G9U G60A G66U it was < 1e-05 s⁻¹.
For the variant A14U C16A G66A, the “self-cleavage kobs at 640 uM GlcN6P” value with glucosamine-6-phosphate [1] came out at 3.92e-05 ± 1.7e-05 s⁻¹. The “self-cleavage kobs at 2500 uM GlcN6P” value with glucosamine-6-phosphate [2] is 0.000107 ± 2.6e-05 s⁻¹.
On the same counts, the results for G44U U47C A48C U69G are < 1e-05 s⁻¹ and < 1e-05 s⁻¹.
Consider A52C A53G A64U, for which, in the data set with glucosamine-6-phosphate [1], the “self-cleavage kobs at 640 uM GlcN6P” value was < 1e-05 s⁻¹. Further, the “self-cleavage kobs at 2500 uM GlcN6P” value with glucosamine-6-phosphate [2] is < 1e-05 s⁻¹.
Take G7C U56G C67U: the “self-cleavage kobs at 640 uM GlcN6P” value with glucosamine-6-phosphate [1] was < 1e-05 s⁻¹.
With G7U C70A, the “self-cleavage kobs at 640 uM GlcN6P” value with glucosamine-6-phosphate [1] was 0.000596 ± 0.00023 s⁻¹.
G37A G41A A48G: the “self-cleavage kobs at 640 uM GlcN6P” value with glucosamine-6-phosphate [1] was < 1e-05 s⁻¹. Further, the “self-cleavage kobs at 2500 uM GlcN6P” value with glucosamine-6-phosphate [2] is < 1e-05 s⁻¹.
With C10U A14U C16G U45G, the “self-cleavage kobs at 640 uM GlcN6P” value with glucosamine-6-phosphate [1] was < 1e-05 s⁻¹.
For the variant G29A A39G U54A, the “self-cleavage kobs at 640 uM GlcN6P” value in the data set with glucosamine-6-phosphate [1] stood at 0.00173 ± 0.00059 s⁻¹. Moreover, the “self-cleavage kobs at 2500 uM GlcN6P” value with glucosamine-6-phosphate [2] came to 0.00457 ± 0.0012 s⁻¹.
As to G51U G62U C70U, the “self-cleavage kobs at 640 uM GlcN6P” value with glucosamine-6-phosphate [1] is < 1e-05 s⁻¹.
As for G7C U31C G40C, the “self-cleavage kobs at 640 uM GlcN6P” value in the data set with glucosamine-6-phosphate [1] is < 1e-05 s⁻¹. The “self-cleavage kobs at 2500 uM GlcN6P” value in the data set with glucosamine-6-phosphate [2] was < 1e-05 s⁻¹.
As for A15C G32A G38U, the “self-cleavage kobs at 640 uM GlcN6P” value with glucosamine-6-phosphate [1] was < 1e-05 s⁻¹.
On the same count and under the same terms, in the case of C16A U31C A33G C34A A52U C68U it was < 1e-05 s⁻¹.
As for A14G G29A G32U, the “self-cleavage kobs at 640 uM GlcN6P” value with glucosamine-6-phosphate [1] amounted to 0.000272 ± 0.0001 s⁻¹. In addition, the “self-cleavage kobs at 2500 uM GlcN6P” value with glucosamine-6-phosphate [2] came out at 0.000568 ± 0.00014 s⁻¹.
Take C8G A42C U47A: in the data set with glucosamine-6-phosphate [1], the “self-cleavage kobs at 640 uM GlcN6P” value was < 1e-05 s⁻¹. In addition, in the data set with glucosamine-6-phosphate [2], the “self-cleavage kobs at 2500 uM GlcN6P” value is < 1e-05 s⁻¹.
Take A6C U31G G40U G43A C50G G60C: the “self-cleavage kobs at 640 uM GlcN6P” value with glucosamine-6-phosphate [1] was < 1e-05 s⁻¹. The “self-cleavage kobs at 10000 uM GlcN6P” value with glucosamine-6-phosphate [3] is < 1e-05 s⁻¹.
With A6U G37C G40A, in the data set with glucosamine-6-phosphate [1], the “self-cleavage kobs at 640 uM GlcN6P” value is < 1e-05 s⁻¹. The “self-cleavage kobs at 2500 uM GlcN6P” value in the data set with glucosamine-6-phosphate [2] is < 1e-05 s⁻¹.
Turning to U30C G32U U47A, in the data set with glucosamine-6-phosphate [1], the “self-cleavage kobs at 640 uM GlcN6P” value came to 0.000115 ± 3.3e-05 s⁻¹. In addition, in the data set with glucosamine-6-phosphate [2], the “self-cleavage kobs at 2500 uM GlcN6P” value turned out to be 0.000106 ± 3e-05 s⁻¹.
Regarding G40A A52C G59A C68U, in the data set with glucosamine-6-phosphate [1], the “self-cleavage kobs at 640 uM GlcN6P” value was < 1e-05 s⁻¹.
The same measure, in the same setting: under A6U A33G U54A stands < 1e-05 s⁻¹; under G35C G37U U56G, < 1e-05 s⁻¹.
Regarding U30C G37U C58A C68G, in the data set with glucosamine-6-phosphate [1], the “self-cleavage kobs at 640 uM GlcN6P” value amounted to 7.09e-05 ± 2.2e-05 s⁻¹. Also, in the data set with glucosamine-6-phosphate [2], the “self-cleavage kobs at 2500 uM GlcN6P” value came out at 0.000165 ± 3.6e-05 s⁻¹.
Regarding G37U C58U U69A, the “self-cleavage kobs at 640 uM GlcN6P” value with glucosamine-6-phosphate [1] stood at 5.7e-05 ± 1.7e-05 s⁻¹.
Same read-out and setting: in the case of C11G C16U G37A U45C A64G it was < 1e-05 s⁻¹.
A36U A48C C67G: in the data set with glucosamine-6-phosphate [1], the “self-cleavage kobs at 640 uM GlcN6P” value is < 1e-05 s⁻¹. For the same variant, in the data set with glucosamine-6-phosphate [2], the “self-cleavage kobs at 2500 uM GlcN6P” value was < 1e-05 s⁻¹.
As to C16G G41C G62A A64G, in the data set with glucosamine-6-phosphate [1], the “self-cleavage kobs at 640 uM GlcN6P” value is < 1e-05 s⁻¹. Also, the “self-cleavage kobs at 2500 uM GlcN6P” value with glucosamine-6-phosphate [2] was < 1e-05 s⁻¹.
Regarding A15U G41U G66U C70U, the “self-cleavage kobs at 640 uM GlcN6P” value in the data set with glucosamine-6-phosphate [1] is 4.78e-05 ± 1.4e-05 s⁻¹.
A42C G43C C70U: in the data set with glucosamine-6-phosphate [1], the “self-cleavage kobs at 640 uM GlcN6P” value was < 1e-05 s⁻¹.
Regarding A6C G9U A52G, the “self-cleavage kobs at 640 uM GlcN6P” value with glucosamine-6-phosphate [1] is < 1e-05 s⁻¹. For the same variant, the “self-cleavage kobs at 10000 uM GlcN6P” value with glucosamine-6-phosphate [3] is < 1e-05 s⁻¹.
As to C10U C61A C67G C71G, in the data set with glucosamine-6-phosphate [1], the “self-cleavage kobs at 640 uM GlcN6P” value is 0.000112 ± 3.5e-05 s⁻¹. The “self-cleavage kobs at 2500 uM GlcN6P” value in the data set with glucosamine-6-phosphate [2] came out at 7.34e-05 ± 2.4e-05 s⁻¹.
Consider C16U A39G G40A A42G G43A U45G, for which, in the data set with glucosamine-6-phosphate [1], the “self-cleavage kobs at 640 uM GlcN6P” value was found to be 0.00638 ± 0.0016 s⁻¹. For the same variant, in the data set with glucosamine-6-phosphate [2], the “self-cleavage kobs at 2500 uM GlcN6P” value is 0.0072 ± 0.0024 s⁻¹.
In the case of A15C G29C G60U, the “self-cleavage kobs at 640 uM GlcN6P” value with glucosamine-6-phosphate [1] is < 1e-05 s⁻¹. In the data set with glucosamine-6-phosphate [2], the “self-cleavage kobs at 2500 uM GlcN6P” value was < 1e-05 s⁻¹. In the data set with glucosamine-6-phosphate [3], the “self-cleavage kobs at 10000 uM GlcN6P” value is < 1e-05 s⁻¹.
